Laboratory results as given in patent US7572594B2, “Screening assays for agonists or antagonists or receptor activator of NF-κB” (Immunex Corporation, priority 2000, dated 2009).

B1: RANK (SEQ ID NO:2) and RANK-L (SEQ ID NO:6): co-transfection of expression vectors encoding full-length human RANK and human full-length RANK-L (protein, listed as Homo sapiens)
chain 1: MAPRARRRRPLFALLLLCALLARLQVALQIAPPCTSEKHYEHLGRCCNKCEPGKYMSSKCTTTSDSVCLPCGPDEYLDSWNEEDKCLLHKVCDTGKALVAVVAGNSTTPRRCACTAGYHWSQDCECCRRNTECAPGLGAQHPLQLNKDTVCKPCLAGYFSDAFSSTDKCRPWTNCTFLGKRVEHHGTEKSDAVCSSSLPARKPPNEPHVYLPGLIILLLFASVALVAAIIFGVCYRKKGKALTANLWHWINEACGRLSGDKESSGDSCVSTHTANFGQQGACEGVLLLTLEEKTFPEDMCYPDQGGVCQGTCVGGGPYAQGEDARMLSLVSKTEIEEDSFRQMPTEDEYMDRPSQPTDQLLFLTEPGSKSTPPFSEPLEVGENDSLSQCFTGTQSTVGSESCNCTEPLCRTDWTPMSSENYLQKEVDSGHCPHWAASPSPNWADVCTGCRNPPGEDCEPLVGSPKRGPLPQCAYGMGLPPEEEASRTEARDQPEDGADGRLPSSARAGAGSGSSPGGQSPASGNVTGNSNSTFISSGQVMNFKGDIIVVYVSQTSQEGAAAAAEPMGRPVQEETLARRDSFAGNGPRFPDPCGGPEGLREPEKASRPVQEQGGAKA
chain 2: MRRASRDYTKYLRGSEEMGGGPGAPHEGPLHAPPPPAPHQPPAASRSMFVALLGLGLGQVVCSVALFFYFRAQMDPNRISEDGTHCIYRILRLHENADFQDTTLESQDTKLIPDSCRRIKQAFQGAVQKELQHIVGSQHIRAEKAMVDGSWLDLAKRSKLEAQPFAHLTINATDIPSGSHKVSLSSWYHDRGWAKISNMTFSNGKLIVNQDGFYYLYANICFRHHETSGDLATEYLQLMVYVTKTSIKIPSSHTLMKGGSTKYWSGNSEFHFYSINVGGFFKLRSGEEISIEVSNPSLLDPDQDATYFGAFKVRDID
B2: leucine zipper form of murine RANK-L: soluble leucine zipper fusion of murine RANK-L (protein)
chain: YFRAQMDPNRISEDSTHCFYRILRLHENADLQDSTLESEDTLPDSCRRMKQAFQGAVQKELQHIVGPQRFSGAPAMMEGSWLDVAQRGKPEAQPFAHLTINAASIPSGSHKVTLSSWYHDRGWAKISNMTLSNGKLRVNQDGFYYLYANICFRHHETSGSVPTDYLQLMVYVVKTSIKIPSSHNLMKGGSTKNWSGNSEFHFYSINVGGFFKLRAGEEISIQVSNPSLLDPDQDATYFGAFKVQDID
modifications: left off: a dimerising Fc or GST

Experiments:
human TRAP promoter = test: human TRAP promoter/luciferase reporter in 293/EBNA cells; assay type: cell-based; conditions: 40 ng reporter
From the text: (§1) This example describes the activation of the TRAP promoter. A 2.6 kb DNA fragment containing the human TRAP promoter was obtained by digesting the plasmid pBL2HT2.2 with the restriction endonuclease ApaI. The cloning of the human TRAP gene 5′ region and the construction of pBL2HT2.2 are fully described in Reddy et al. (Bone 16:587-593 (1995)). A DNA containing the mouse TRAP promoter (SEQ ID NO:12) and a DNA containing the murine MMP-9 promoter (SEQ ID NO:11) also were used for these experiments. DNAs containing the promoters were fused to the luciferase reporter gene. These promoter/reporter constructs were transfected into human 293/EBNA cells along with various combinations of expression vectors that encoded full-length human RANK (SEQ ID NO:2) and human full-length RANK-L proteins (SEQ ID NO:6).
For the human TRAP promoter, the 1.9 kb […] fragment containing the promoter activity isolated from the region upstream of the human TRAP gene (Reddy et al., 1995) was fused to a luciferase reporter and transfected (40 ng) into 293/EBNA cells. The combination of human RANK (SEQ ID NO:2) and human RANK-L (SEQ ID NO:6) increased reporter expression approximately 1.5 fold.

[1] = system: mouse TRAP promoter (SEQ ID NO:12); test: mouse TRAP promoter/luciferase reporter in 293/EBNA cells; assay type: cell-based; conditions: 24 hours after transfection, 0.4 ng RANK vector, 20 ng RANK-L vector
From the text: as §1
For the mouse TRAP promoter (SEQ ID NO:12), 2×10^5 293/EBNA cells were transfected using DEAE/dextran with 40 ng of a plasmid encoding approximately 2 kb of the mouse TRAP promoter (SEQ ID NO:12) fused to a luciferase reporter, 20 ng of an expression vector encoding RANK-L (SEQ ID NO:6), and 0.4 ng of an expression vector encoding RANK (SEQ ID NO:2). Twenty four hours after transfection, luciferase activity in cell lysates was measured according to manufacturer's instructions (Promega) using a EG&G/Berthold luminometer. […]

mouse MMP-9 mRNA = test: Quantitative RT-PCR of MMP-9 mRNA in RAW 264.7 cells; assay type: cell-based; conditions: RANKL/LZ 200 ng/ml or TNFα 20 ng/ml, various times
From the text: MMP-9 mRNA is elevated greater than 350-fold by RANK-L, but is not increased by TNFα. This specificity is helpful in screening for inhibitors of RANK signal transduction.

mouse TRAP mRNA = test: Quantitative RT-PCR of TRAP mRNA in RAW 264.7 cells; assay type: cell-based; conditions: RANKL/LZ 200 ng/ml or TNFα 20 ng/ml, various times
[2] = system: MMP-9 (SEQ ID NO:11)/luciferase promoter; test: MMP-9/luciferase reporter in RAW 264.7 cells; assay type: cell-based, murine; conditions: 1 μg/ml for 18 hours
Description: Additionally, RAW 264.7 cells (6×10^6 cells) were transfected with 15 μg of MMP-9 (SEQ ID NO:11)/luciferase plasmid DNA using DEAE/dextran. Two hours after transfection, cells were divided into two equal amounts and further incubated for 24 hours. Addition of 1 μg/ml of a leucine zipper form of murine RANK-L for 18 hours was sufficient to induce the MMP-9 (SEQ ID NO:11)/luciferase promoter 10-15 fold.

| Molecule | increase of reporter expression (luciferase) (human TRAP promoter) | increase of reporter expression (luciferase) [1] | MMP-9 mRNA elevation (mouse MMP-9 mRNA) | TRAP mRNA elevation (mouse TRAP mRNA) | induction of MMP-9/luciferase promoter [2] |
| --- | --- | --- | --- | --- | --- |
| B1 | approximately 1.5 fold | approximately 4 fold |  |  |  |
| B2 |  |  | greater than 350 fold | greater than 250 fold | 10-15 fold |
